Assays:
[1] = test system: RSV pre-F antibody (3C12); test: Binding of epitope Φ of RSV F antigen mutants by flow cytometry; conditions: for RSV pre-F antibody (3C12) Epitope Φ (%) binding rate: flow cytometry; for Φ/II (%): ratio of epitope Φ (3C12) to epitope II (11A9) binding rate
Summary of the method: (§1)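 293T cells were transfected with mRNA-LNP (300 ng mRNA) encoding the RSV F mutants and harvested after 16 h. Cells were stained with fluorescent 3C12 (pre-F-specific epitope Φ) or 11A9 (epitope II, pre-F and post-F) for 2 h at 4 °C in the dark, then washed and read by flow cytometry on 1×10^4 cells per measurement.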

[2] = test system: RSV pre-F antibody (3C12); assay type: physicochemical; conditions: ELISA binding to 3C12; for Stress resistance parameter, Osmotic pressure (mM) 3000: high osmotic pressure 3000 mM; for Stress resistance parameter, Osmotic pressure (mM) 3000 / Stress resistance parameter, Osmotic pressure (mM) 10: room temperature; for Stress resistance parameter, Osmotic pressure (mM) 3000 / Stress resistance parameter, Osmotic pressure (mM) 10 / Stress resistance parameter, pH 3.5 / Stress resistance parameter, pH 10: 60 min; for Stress resistance parameter, Temperature (° C.) 50: incubation at 50° C. for 60 min; for Stress resistance parameter, Osmotic pressure (mM) 10: low osmotic pressure 10 mM; for Stress resistance parameter, pH 3.5: pH 3.5, room temperature; for Stress resistance parameter, pH 10: pH 10, room temperature; for Stress resistance parameter, Temperature (° C.) 4: storage at 4° C. for one week
Summary of the method: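 RSV F mRNA-vaccine mutants stress-treated: 4° C. for one week, 50° C. for 60 min, low or high osmotic pressure at room temperature for 60 min, acid or base at room temperature for 60 min. Binding to 3C12 (epitope Φ) then measured by ELISA against pre-F trimer standard, HRP anti-human IgG, OD 450/630 nm.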

RSV F antibody (11A9) = test: Binding of epitope II of RSV F antigen mutants by flow cytometry; conditions: epitope II, antibody 11A9
Summary of the method: as §1

B1: YK-RSV-029 (protein)
chain: QNICEEFYQSTCSAVSKGYLGALRTGWYTSVITIELSNIKENKCNGTDAKVKLIKQELDKYKNAVTDLQLLMQSTPATGSGSAIASGVAVSKVLHLEGEVNKIKSALLSTNKAVVSLSNGVSVLTFKVLDLKNYIDKQLLPILNKQSCSIPNIETVIEFQQKNNRLLEITREFSVNAGVTTPVSTYMLTNSELLSLINDMPITNDQKKLMSNNVQIVRQQSYSIMSIIKEEVLAYVVQLPLYGVIDTPCWKLHTSPLCTTNTKEGSNICLTRTDRGWYCDNAGSVSFFPQAETCKVQSNRVFCDTMNSRTLPSEVNLCNVDIFNPKYDCKIMTSKTDVSSSVITSLGAIVSCYGKTKCTASNKNRGIIKTFSNGCDYVSNKGVDTVSVGNTLYYVNKQEGCSLYVKGEPIINFYDPLVFPSDEFDASISQVNEKINQSLAFIRKSDELLHNVNAGKSTTNIMITTIIIVIIVILLSLIAVGLLLY
- RSV pre-F antibody (3C12) Epitope Φ (%) binding rate [1]: 79.6%
- Φ/II (%) [1]: 91.8%
- Stress resistance parameter, Osmotic pressure (mM) 3000 [2]: 0.40 ± 0.01
- Stress resistance parameter, Temperature (° C.) 50 [2]: 0.57 ± 0.08
- Stress resistance parameter, Osmotic pressure (mM) 10 [2]: 0.61 ± 0.05
- Stress resistance parameter, pH 3.5 [2]: 0.63 ± 0.03
- Stress resistance parameter, pH 10 [2]: 0.82 ± 0.01
- Stress resistance parameter, Temperature (° C.) 4 [2]: 0.32 ± 0.06
- RSV F antibody (11A9) Epitope II (%) binding rate (RSV F antibody (11A9)): 86.7%

B2: YK-RSV-040 (protein)
chain: QNITEEFYQSTCSAVSKGYLGALRTGWYCSVITIELSNIKENKCNGTDAKVKLIKQELDKYKNAVTDLQLLMQSTPATGSGSAIASGVCVSKVLHLEGEVNKIKSALLSTNKAVVSLSNGVSVLTFKVLDLKNYIDKQLLPILNKQSCSIPNIETVIEFQQKNNRLLEITREFSVNAGVTTPVSTYMLTNSELLSLINDMPITNDQKKLMSNNVQIVRQQSYSIMSIIKEEVLAYVVQLPLYGVIDTPCWKLHTSPLCTTNTKEGSNICLTRTDRGWYCDNAGSVSFFPQAETCKVQSNRVFCDTMNSRTLPSEVNLCNVDIFNPKYDCKIMTSKTDVSSSVITSLGAIVSCYGKTKCTASNKNRGIIKTFSNGCDYVSNKGVDTVSVGNTLYYVNKQEGQSLYVKGEPIINFYDPLVFPSDEFDASISQVNEKINQSLAFIRKSDELLHNVNAGKSTTNIMITTIIIVIIVILLSLIAVGLLLY
- RSV pre-F antibody (3C12) Epitope Φ (%) binding rate [1]: 84.3%
- Φ/II (%) [1]: 91.6%
- Stress resistance parameter, Osmotic pressure (mM) 3000 [2]: 0.61 ± 0.09
- Stress resistance parameter, Temperature (° C.) 50 [2]: 0.91 ± 0.14
- Stress resistance parameter, Osmotic pressure (mM) 10 [2]: 0.75 ± 0.13
- Stress resistance parameter, pH 3.5 [2]: 0.93 ± 0.09
- Stress resistance parameter, pH 10 [2]: 1.00 ± 0.23
- Stress resistance parameter, Temperature (° C.) 4 [2]: 0.38 ± 0.08
- RSV F antibody (11A9) Epitope II (%) binding rate (RSV F antibody (11A9)): 92.0%

B3: YK-RSV-035 (protein)
chain: QCITEEFYQSTCSAVSKGYLGALRTGWYTSVITIELSNIKENKCNGTDAKVKLIKQELDKYKNAVTDLQLLMQSTPATGSGSAIASGVAVSKVLHLEGEVNKIKSALLSTNKAVVSLSNGVSVLTFKVLDLKNYIDKQLLPILNKQSCSIPNIETVIEFQQKNNRLLEITREFSVNAGVTTPVSTYMLTNSELLSLINDMPITNDQKKLMSNNVQIVRQQSYSIMSIIKEEVLAYVVQLPLYGVIDTPCWKLHTSPLCTTNTKEGSNICLTRTDRGWYCDNAGSVSFFPQAETCKVQSNRVFCDTMNSRTLPSEVNLCNVDIFNPKYDCKIMTSKTDVSSSVITSLGAIVSCYGKTKCTASNKNRGIIKTFSNGCDYVSNKGVDTVSVGNTLYYVNKCEGQSLYVKGEPIINFYDPLVFPSDEFDASISQVNEKINQSLAFIRKSDELLHNVNAGKSTTNIMITTIIIVIIVILLSLIAVGLLLY
- RSV pre-F antibody (3C12) Epitope Φ (%) binding rate [1]: 79.6%
- Φ/II (%) [1]: 91.4%
- Stress resistance parameter, Osmotic pressure (mM) 3000 [2]: 0.21 ± 0.06
- Stress resistance parameter, Temperature (° C.) 50 [2]: 0.39 ± 0.02
- Stress resistance parameter, Osmotic pressure (mM) 10 [2]: 0.39 ± 0.05
- Stress resistance parameter, pH 3.5 [2]: 0.57 ± 0.03
- Stress resistance parameter, pH 10 [2]: 0.82 ± 0.01
- Stress resistance parameter, Temperature (° C.) 4 [2]: 0.31 ± 0.07
- RSV F antibody (11A9) Epitope II (%) binding rate (RSV F antibody (11A9)): 87.1%

B4: YK-RSV-034 (protein)
chain: CNITEEFYQSTCSAVSKGYLGALRTGWYTSVITIELSNIKENKCNGTDAKVKLIKQELDKYKNAVTDLQLLMQSTPATGSGSAIASGVAVSKVLHLEGEVNKIKSALLSTNKAVVSLSNGVSVLTFKVLDLKNYIDKQLLPILNKQSCSIPNIETVIEFQQKNNRLLEITREFSVNAGVTTPVSTYMLTNSELLSLINDMPITNDQKKLMSNNVQIVRQQSYSIMSIIKEEVLAYVVQLPLYGVIDTPCWKLHTSPLCTTNTKEGSNICLTRTDRGWYCDNAGSVSFFPQAETCKVQSNRVFCDTMNSRTLPSEVNLCNVDIFNPKYDCKIMTSKTDVSSSVITSLGAIVSCYGKTKCTASNKNRGIIKTFSNGCDYVSNKGVDTVSVGNTLYYVNCQEGQSLYVKGEPIINFYDPLVFPSDEFDASISQVNEKINQSLAFIRKSDELLHNVNAGKSTTNIMITTIIIVIIVILLSLIAVGLLLY
- RSV pre-F antibody (3C12) Epitope Φ (%) binding rate [1]: 82.5%
- Φ/II (%) [1]: 90.7%
- Stress resistance parameter, Osmotic pressure (mM) 3000 [2]: 0.34 ± 0.15
- Stress resistance parameter, Temperature (° C.) 50 [2]: 0.68 ± 0.07
- Stress resistance parameter, Osmotic pressure (mM) 10 [2]: 0.84 ± 0.14
- Stress resistance parameter, pH 3.5 [2]: 0.81 ± 0.09
- Stress resistance parameter, pH 10 [2]: 0.91 ± 0.04
- Stress resistance parameter, Temperature (° C.) 4 [2]: 0.37 ± 0.07
- RSV F antibody (11A9) Epitope II (%) binding rate (RSV F antibody (11A9)): 91.0%

B5: YK-RSV-032 (protein)
chain: QNITEEFYCSTCSAVSKGYLGALRTGWYTSVITIELSNIKENKCNGTDAKVKLIKQELDKYKNAVTDLQLLMQSTPATGSGSAIASGVAVSKVLHLEGEVNKIKSALLSTNKAVVSLSNGVSVLTFKVLDLKNYIDKQLLPILNKQSCSIPNIETVIEFQQKNNRLLEITREFSVNAGVTTPVSTYMLTNSELLSLINDMPITNDQKKLMSNNVQIVRQQSYSIMSIIKEEVLAYVVQLPLYGVIDTPCWKLHTSPLCTTNTKEGSNICLTRTDRGWYCDNAGSVSFFPQAETCKVQSNRVFCDTMNSRTLPSEVNLCNVDIFNPKYDCKIMTSKTDVSSSVITSLGAIVSCYGKTKCTASNKNRGIIKTFSNGCDYVSNKGVDTVSVGNTLYYVNKQEGQSLYVCGEPIINFYDPLVFPSDEFDASISQVNEKINQSLAFIRKSDELLHNVNAGKSTTNIMITTIIIVIIVILLSLIAVGLLLY
- RSV pre-F antibody (3C12) Epitope Φ (%) binding rate [1]: 86.1%
- Φ/II (%) [1]: 90.8%
- Stress resistance parameter, Osmotic pressure (mM) 3000 [2]: 0.37 ± 0.02
- Stress resistance parameter, Temperature (° C.) 50 [2]: 0.78 ± 0.02
- Stress resistance parameter, Osmotic pressure (mM) 10 [2]: 0.66 ± 0.14
- Stress resistance parameter, pH 3.5 [2]: 1.01 ± 0.35
- Stress resistance parameter, pH 10 [2]: 0.98 ± 0.06
- Stress resistance parameter, Temperature (° C.) 4 [2]: 0.34 ± 0.08
- RSV F antibody (11A9) Epitope II (%) binding rate (RSV F antibody (11A9)): 94.8%

B6: YK-RSV-045 (protein)
chain: QNITEEFYQSTCSAVSKGYLGALRTGWYTSVITIELSNIKENKCNGTDAKVKLIKQELDKYKNAVTDLQLLMQSCPATGSGSAIASGVAVSKVLHLEGEVNKIKSALLSTNKAVVSLSNGVSVLTFKVLDLKNYIDKQLLPILNKQSCSIPNIETVIEFQQKNNRLLEITREFSVNAGVTTPVSTYMLTNSELLSLINDMPITNDQKKLMSNNVQIVRQQSYSIMSIIKEEVLAYCVQLPLYGVIDTPCWKLHTSPLCTTNTKEGSNICLTRTDRGWYCDNAGSVSFFPQAETCKVQSNRVFCDTMNSRTLPSEVNLCNVDIFNPKYDCKIMTSKTDVSSSVITSLGAIVSCYGKTKCTASNKNRGIIKTFSNGCDYVSNKGVDTVSVGNTLYYVNKQEGQSLYVKGEPIINFYDPLVFPSDEFDASISQVNEKINQSLAFIRKSDELLHNVNAGKSTTNIMITTIIIVIIVILLSLIAVGLLLY
- RSV pre-F antibody (3C12) Epitope Φ (%) binding rate [1]: 78.3%
- Φ/II (%) [1]: 91.0%
- Stress resistance parameter, Osmotic pressure (mM) 3000 [2]: 0.46 ± 0.05
- Stress resistance parameter, Temperature (° C.) 50 [2]: 0.41 ± 0.03
- Stress resistance parameter, Osmotic pressure (mM) 10 [2]: 0.57 ± 0.09
- Stress resistance parameter, pH 3.5 [2]: 0.47 ± 0.09
- Stress resistance parameter, pH 10 [2]: 0.97 ± 0.07
- Stress resistance parameter, Temperature (° C.) 4 [2]: 0.29 ± 0.02
- RSV F antibody (11A9) Epitope II (%) binding rate (RSV F antibody (11A9)): 86.0%

B7: YK-RSV-037 (protein)
chain: QNITEEFYQSTCSAVSKGYLGALRTGWCTSVITIELSNIKENKCNGTDAKVKLIKQELDKYKNAVTDLQLLMQSTPATGSGSAIASGVCVSKVLHLEGEVNKIKSALLSTNKAVVSLSNGVSVLTFKVLDLKNYIDKQLLPILNKQSCSIPNIETVIEFQQKNNRLLEITREFSVNAGVTTPVSTYMLTNSELLSLINDMPITNDQKKLMSNNVQIVRQQSYSIMSIIKEEVLAYVVQLPLYGVIDTPCWKLHTSPLCTTNTKEGSNICLTRTDRGWYCDNAGSVSFFPQAETCKVQSNRVFCDTMNSRTLPSEVNLCNVDIFNPKYDCKIMTSKTDVSSSVITSLGAIVSCYGKTKCTASNKNRGIIKTFSNGCDYVSNKGVDTVSVGNTLYYVNKQEGQSLYVKGEPIINFYDPLVFPSDEFDASISQVNEKINQSLAFIRKSDELLHNVNAGKSTTNIMITTIIIVIIVILLSLIAVGLLLY
- RSV pre-F antibody (3C12) Epitope Φ (%) binding rate [1]: 79.0%
- Φ/II (%) [1]: 90.9%
- Stress resistance parameter, Osmotic pressure (mM) 3000 [2]: 0.21 ± 0.03
- Stress resistance parameter, Temperature (° C.) 50 [2]: 0.50 ± 0.06
- Stress resistance parameter, Osmotic pressure (mM) 10 [2]: 0.54 ± 0.11
- Stress resistance parameter, pH 3.5 [2]: 0.68 ± 0.10
- Stress resistance parameter, pH 10 [2]: 1.24 ± 0.11
- Stress resistance parameter, Temperature (° C.) 4 [2]: 0.27 ± 0.07
- RSV F antibody (11A9) Epitope II (%) binding rate (RSV F antibody (11A9)): 86.9%
